Laboratory results as given in US20240167098, “METHODS FOR PREDICTING TREATMENT OUTCOME TO CHECKPOINT INHIBITORS IN CANCER” (The Brigham and Women`s Hospital, Inc., published 2024).

T1: HNRNPH1 (hnRNP H1) isoform A (UniProt P31943 P31943:1-449)
T1 sequence: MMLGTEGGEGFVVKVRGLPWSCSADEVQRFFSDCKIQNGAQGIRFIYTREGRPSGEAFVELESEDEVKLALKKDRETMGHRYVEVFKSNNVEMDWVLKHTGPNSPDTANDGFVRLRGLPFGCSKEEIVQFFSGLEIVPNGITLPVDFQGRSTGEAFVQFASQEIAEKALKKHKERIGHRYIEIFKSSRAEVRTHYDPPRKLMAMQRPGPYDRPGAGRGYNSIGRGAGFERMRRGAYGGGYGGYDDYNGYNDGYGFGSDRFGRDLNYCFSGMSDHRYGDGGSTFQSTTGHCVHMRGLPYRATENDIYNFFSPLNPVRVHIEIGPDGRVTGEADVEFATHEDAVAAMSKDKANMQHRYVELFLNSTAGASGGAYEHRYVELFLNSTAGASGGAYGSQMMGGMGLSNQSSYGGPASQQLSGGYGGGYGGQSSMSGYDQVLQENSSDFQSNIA


Key:
[1] = target: T1, HNRNPH1 (hnRNP H1) isoform A; experiment: MST; value only in figure; 20 nM RNA, 50 mM Tris pH 8.0, 300 mM KCl, 0.02% NP-40, 10% glycerol, 0.5 mg/ml heparin, 22 C; conditions: label: 3' FAM (MST)
Procedure: (§1) Microscale thermophoresis. MicroScale Thermophoresis experiments were performed according to the NanoTemper technologies protocol in a Monolith NT.115Pico (red/blue) instrument (NanoTemper Technologies). Serial dilutions of HNRNPH1 were done using a buffer containing 50 mM Tris [pH 8.0], 300 mM KCl, 0.02% NP-40, 10% Glycerol, and 0.5 mg/ml Heparin. RNA oligos were labeled with a FAM moiety at their […] (IDT). The RNA concentration was kept constant at 20 nM throughout the experiments. The RNA-protein mixture was incubated at room temperature for 15 mins before running into the MST instrument. The experiments were performed using 40% and 60% MST power and between 20%-80% LED power at 22_C. The MST traces were recorded using the standard parameters: 5 s MST power off, 30 s medium MST power on and 5 s MST power off. The reported measurement values are the combination of two effects: the fast, local environment dependent responses of the fluorophore to the temperature jump and the slower diffusive thermophoresis fluorescence changes. The data presented here are the average of 3 independent experiments. Average normalized fluorescence (%) was plotted against HNRNPH1 concentration to determine the binding constant (Kd). Ligand depletion model with one binding site was used (Using GraphPad Prism 8) to fit the binding which follows the following model: Y=Bmax*X/(Kd+X).

[2] = target: T1, HNRNPH1 (hnRNP H1) isoform A; experiment: MST; value only in figure; same buffer as INCR1; conditions: label: 3' FAM (MST); 32P (EMSA)
Procedure: as §1

Row | Binder | binding result [1] | binding result [2]
1 | GGGGCGGGCCGGUUGCCGGGGGGAGCUGGAGUCACGUGACGGC (ssRNA) [INCR1 RNA oligo] | binds | –
2 | UAAGGGGUGAGGGGCAGGAGAAUGGGUAUGGAUGGAGGUAGA (ssRNA) [PD-L1 RNA oligo] | – | binds
3 | AUACGUGGGAGUGGGGUGCUGAGCUGGGCAGGGUGAGAGUAU (ssRNA) [JAK2 RNA oligo] | – | binds
